Experiment [1] concerns the target Apt2-Flag fusion protein (human), O95372. The experiment is described as follows: native gel or EMSA. To be noted: remark: other sources report otherwise. For orientation: In EMSA bound probe runs differently from free probe, usually more slowly.
For experiment [2], the target named is Apt1-Flag fusion protein (human), O75608. The experiment is described as follows: native gel or EMSA. Conditions: remark: other sources report otherwise.

Our source for the stoichiometry N values is PMC11975282.

B1: Apt2-Flag fusion protein, O95372 1-231 (enzyme)
chain: MCGNTMSVPLLTDAATVSGAERETAAVIFLHGLGDTGHSWADALSTIRLPHVKYICPHAPRIPVTLNMKMVMPSWFDLMGLSPDAPEDEAGIKKAAENIKALIEHEMKNGIPANRIVLGGFSQGGALSLYTALTCPHPLAGIVALSCWLPLHRAFPQAANGSAKDLAILQCHGELDPMVPVRFGALTAEKLRSVVTPARVQFKTYPGVMHSSCPQEMAAVKEFLEKLLPPV
What is called stoichiometry N is a count of units in the complex or per binding partner. In turn, B1 displayed a stoichiometry N in experiment [1] of 2.

B2: Apt1-Flag fusion protein, O75608 1-230 (enzyme)
chain: MCGNNMSTPLPAIVPAARKATAAVIFLHGLGDTGHGWAEAFAGIRSSHIKYICPHAPVRPVTLNMNVAMPSWFDIIGLSPDSQEDESGIKQAAENIKALIDQEVKNGIPSNRIILGGFSQGGALSLYTALTTQQKLAGVTALSCWLPLRASFPQGPIGGANRDISILQCHGDCDPLVPLMFGSLTVEKLKTLVNPANVTFKTYEGMMHSSCQQEMMDVKQFIDKLLPPID
In experiment [2], B2 came in with a stoichiometry N of 2.
